For this data set, the system named is T1, HicB-6His (Sinorhizobium meliloti), ORF:5e3b9e2c.
T1 sequence: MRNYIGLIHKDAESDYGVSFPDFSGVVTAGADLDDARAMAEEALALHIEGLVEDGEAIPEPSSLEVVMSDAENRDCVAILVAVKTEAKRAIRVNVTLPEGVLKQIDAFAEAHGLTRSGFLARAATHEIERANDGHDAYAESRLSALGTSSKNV
The experiment in a line: EMSA. Particulars: EMSA: 10 mM Tris-HCl pH 7.5, 50 mM NaCl, 1 mM DTT, 300 ug/ml BSA, 20 ul, 30 min at 25 C; 5% native PAGE in TAE pH 7.5. (A gel shift assay detects complexes by their altered migration in electrophoresis.)

Take “GATCCGACGGTTCGAGACCATCCGAGAAAGCCGCCTTAGATTGGCTTGACAAATTCATTGGACGAATACACATGCGTGTGTATTGTCGTATCAGATGAAGAGCGGCGACATTATTGCAGCATTGCAGAAGGACGGATGGTACGAGGTTGCGACCAAGGGCAGCCACGTTCAATTCAAACATCCGAAAAAGCACGGCCGGGTTACCGTTCCTCACCCGAAGA (double strand) [hicAB promoter fragment]”: the binding result is “binds”.

The values are drawn from publication PMC6327479.
